Test results as given in the supplement of paper PMC9732359.
± gives the uncertainty stated by the source.

Experiment: protein stability index of a GFP-peptide fusion (yeast GPS) (PSI 1-4); higher = more stable; sorted into four equal gates, so the index is relative within each strain
Procedure, shortened: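 Plasmids in a pooled yeast library fused tiled 17-residue yeast protein peptides downstream of GFP and also expressed Cherry. Mid-log cultures grown without leucine were sorted into four equal gates by GFP/Cherry fluorescence ratio. Each gate's plasmids were PCR-amplified and Illumina-sequenced, and reads were matched to strains by barcodes. The protein stability index is derived by multiplying each gate's read frequency by its gate number and summing the results.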

Sequence | protein stability index (doa10∆) | protein stability index (pdr5∆) | protein stability index (san1∆) | protein stability index (ubr1∆)
SKQDLIHSLIPVAKWFV [SIN4] | 2.4 ± 0.076 | 2.99 ± 0.054 | 2.9 ± 0.061 | 2.78 ± 0.08
RGFIKSEGSGSSLVQKG [RPC53] | 3.37 ± 0.1 | 3.34 ± 0.09 | 3.31 ± 0.076 | 3.14 ± 0.057
LGKYEFSKILPAALDGL [ESC2] | 2.28 ± 0.055 | 2.67 ± 0.072 | 1.61 ± 0.13 | 2 ± 0.086
IDNGAESSENEAEDDDN [RPC53] | 3.33 ± 0.14 | 3.62 ± 0.17 | 3.15 ± 0.11 | 2.81 ± 0.16
TVQNEILGDLGKEFGTT [FAS2] | 3.03 ± 0.2 | 2.34 ± 0.25 | 2.57 ± 0.093 | 2.9 ± 0.16
ALQKGLKDLMDLCDVVE [RPC19] | 3.44 ± 0.24 | 2.84 ± 0.28 | 2.92 ± 0.13 | 3.02 ± 0.14
SSDGQLKKFRESLVHSA [BRR2] | 3.41 ± 0.15 | 3.25 ± 0.23 | 3.22 ± 0.16 | 3.33 ± 0.13
AETDYVDPKRLAMVIIK [DSN1] | 3.13 ± 0.066 | 3.35 ± 0.074 | 3.03 ± 0.056 | 3.53 ± 0.06
GLLDLERVIVVTGFAEV [FAS2] | 2.9 ± 0.17 | 2.32 ± 0.095 | 2.21 ± 0.17 | 2.16 ± 0.11
AVDNCAICRNHIMEPCI [HRT1] | 2.12 ± 0.071 | 2.79 ± 0.09 | 2.02 ± 0.086 | 2.2 ± 0.07
MTDMQIQWYKSLLEKDI [ISW2] | 1.84 ± 0.058 | 2.35 ± 0.062 | 1.74 ± 0.092 | 2.78 ± 0.061
QPSYNSAIIENAFRKEE [GAL11] | 2.86 ± 0.086 | 2.68 ± 0.091 | 2.74 ± 0.077 | 2.76 ± 0.055
DDEKNDKQARKQRTKKE [SNF2] | 3.35 ± 0.3 | 3.53 ± 0.11 | 3.06 ± 0.088 | 3.18 ± 0.1
TEVSRKSMKYVKKILPL [ECM29] | 2.34 ± 0.28 | 1.5 ± 0.24 | – | 1.18 ± 0.16
SLLLSSVKESTGMSSMS [SRB4] | 1.96 ± 0.081 | 2.21 ± 0.078 | 1.57 ± 0.21 | 1.22 ± 0.13
IMSTEAHVNKVTEETTK [SIR4] | 2.77 ± 0.09 | 2.89 ± 0.059 | 2.97 ± 0.04 | 2.85 ± 0.063
MDRTSLRKQYSAIDEEI [SMC3] | 2.28 ± 0.21 | – | – | 2.63 ± 0.25
FNFVLLGQIGACHVEVP [COB] | 1.43 ± 0.085 | 1.88 ± 0.071 | 1.2 ± 0.17 | 1.6 ± 0.089
KSAEGNNIDQSLILKES [YAR002W/NUP60] | 2.82 ± 0.095 | 2.86 ± 0.063 | 2.61 ± 0.096 | 3 ± 0.078
AGLDEDGKGAVYSFDPV [PRE7] | 2.58 ± 0.29 | 3 ± 0.2 | – | 2.87 ± 0.15
LVTIEGALIHKAGLMTG [SMC1] | 2.99 ± 0.14 | 2.71 ± 0.12 | 2.92 ± 0.13 | 2.95 ± 0.12
LAVKVHGGSRYATKDGV [QCR2] | 1.62 ± 0.11 | 1.18 ± 0.1 | 1.17 ± 0.26 | 1.07 ± 0.089
LNYGVYLNGTLIGSIRF [RET1] | 1.43 ± 0.07 | 2.29 ± 0.097 | 2.53 ± 0.088 | 2.71 ± 0.088
SAPKISSEIDRENVKSK [SIR4] | – | – | – | 3.35 ± 0.15
PVKSIRARLKGKEGRIR [RPO21] | 3.36 ± 0.091 | 3.22 ± 0.11 | 3.33 ± 0.085 | 2.94 ± 0.079
LSTSAFMEIVLEYNVAL [YML031W/NDC1] | 1.98 ± 0.037 | 1.71 ± 0.052 | 1.78 ± 0.08 | 2.12 ± 0.067
INDRNDRAIRKTCQWYS [DIS3] | 3.21 ± 0.087 | 3.09 ± 0.097 | 2.98 ± 0.068 | 3.25 ± 0.12

Sequence | protein stability index (doa10∆) | protein stability index (pdr5∆) | protein stability index (san1∆) | protein stability index (ubr1∆)
WVQLVQIIVTDGKLEPS [YJL039C/NUP192] | 1.27 ± 0.065 | 1.32 ± 0.085 | 1.19 ± 0.098 | 1.27 ± 0.07
NTEGSVVYEDSLELEKV [SNF2] | 2.98 ± 0.063 | 2.94 ± 0.062 | 2.48 ± 0.095 | 3.01 ± 0.095
VQCPTVIKLAKYPDYFP [ARP9] | 2.15 ± 0.079 | 1.81 ± 0.049 | 2.31 ± 0.092 | 1.82 ± 0.047
YYVPYSKLMPVLKSSVY [RPC82] | 1.53 ± 0.064 | 1.85 ± 0.079 | 1.57 ± 0.098 | 1.74 ± 0.079
CSFAVTKSSLNDLDYDL [YML103C/NUP188] | 3.04 ± 0.1 | 3.13 ± 0.091 | 3.01 ± 0.078 | 3.1 ± 0.055
KYKSNTNNMEKIIEDLR [SMC2] | 3.21 ± 0.061 | 3.23 ± 0.055 | 3.23 ± 0.034 | 3.2 ± 0.034
TGAPPYYYNTKIYKLEN [YMR129W/POM152] | 2.8 ± 0.063 | 2.72 ± 0.064 | 2.5 ± 0.11 | 3.17 ± 0.041
NLINLSIGASIADLASL [YCS4] | 2.45 ± 0.055 | 2.44 ± 0.052 | 2.39 ± 0.071 | 2.69 ± 0.042
QLIAKNVANVSGSTEKA [SIR3] | 3.03 ± 0.085 | 3.04 ± 0.07 | 3.1 ± 0.054 | 2.88 ± 0.061
SDIPVSENVFEGLTYKY [SSN3] | 1.82 ± 0.078 | 1.89 ± 0.1 | – | 1.98 ± 0.042
PLIWQLLQSSIINKLIH [POP3] | 2 ± 0.059 | 2.38 ± 0.062 | 2.01 ± 0.096 | 1.84 ± 0.028
SNTNDNISIITLELESF [RGR1] | 2.54 ± 0.075 | 2.39 ± 0.081 | 2.25 ± 0.098 | 2.32 ± 0.11
HHDGKLWNLNAYRTDVI [PRP8] | 2.94 ± 0.082 | 3.28 ± 0.092 | 3.04 ± 0.074 | 3.07 ± 0.071
MQANKLDSQETPSTEES [SWI3] | 1.79 ± 0.096 | 2.35 ± 0.073 | 2.39 ± 0.11 | 2.36 ± 0.056
DDDQIESLKKSPIFEVL [ARP9] | 3.16 ± 0.064 | 3.15 ± 0.046 | 3.06 ± 0.033 | 3.2 ± 0.04
CISLSGVPNYLVQLEPH [SSN2] | 1.85 ± 0.062 | 2.09 ± 0.08 | 2.29 ± 0.083 | 2.2 ± 0.065
IMGFISYHNGNLKGRPY [FAS2] | 3 ± 0.13 | 2.95 ± 0.11 | 3.28 ± 0.057 | 3.01 ± 0.12
LTGEWSTKFDYPPMPFD [FAS1] | 2.85 ± 0.056 | 2.96 ± 0.062 | 2.85 ± 0.048 | 2.94 ± 0.037
EFANFELKDICSFAVTK [YML103C/NUP188] | 2.07 ± 0.072 | 2.29 ± 0.065 | 2.22 ± 0.12 | 2.05 ± 0.043
SAIRKCVRVQLIKNGKK [RPS23A] | 2.91 ± 0.081 | 3.02 ± 0.069 | 2.45 ± 0.12 | 3.19 ± 0.095
NLQTVHFGHCFNITDNG [GRR1] | 1.22 ± 0.091 | – | – | –
YVIKALQSLTSKGYVKT [RPS10A] | 2.88 ± 0.12 | 1.74 ± 0.072 | 1.39 ± 0.17 | 2.6 ± 0.089
LLTNFHGMDFTTDKLRS [RPS1A] | 2.52 ± 0.1 | 3.02 ± 0.084 | 2.84 ± 0.097 | 2.81 ± 0.077
RQPSLHRLSILSHYAKI [RPO31] | 1.74 ± 0.077 | 2.1 ± 0.071 | 1.36 ± 0.12 | 2.13 ± 0.063
VFKTHSYRGVDLEKLLE [RPS15] | 3.2 ± 0.083 | 3.18 ± 0.062 | 3.14 ± 0.045 | 2.29 ± 0.04
SLLGGFDENIARDIISH [PCI8] | 2.83 ± 0.058 | 2.83 ± 0.048 | 2.71 ± 0.044 | 2.82 ± 0.046
KIRITLTSTKVKQLENV [RPS20] | 1.77 ± 0.076 | 2.11 ± 0.12 | 1.94 ± 0.11 | 2.25 ± 0.068

Sequence | protein stability index (doa10∆) | protein stability index (pdr5∆) | protein stability index (san1∆) | protein stability index (ubr1∆)
WREQLRNRDIALFQPPN [ROX3] | 2.31 ± 0.066 | 2.95 ± 0.066 | 2.73 ± 0.059 | 1.96 ± 0.047
LETDGVNLSEVMTVPGI [RPO21] | 2.75 ± 0.19 | 3.36 ± 0.21 | 3.03 ± 0.13 | 3.34 ± 0.14
FLYEILSSLKSFAIYSS [SRB8] | 1.24 ± 0.053 | 1.16 ± 0.038 | 1.34 ± 0.099 | 1.14 ± 0.047
RFPETMDETQTRAKIGG [RPO21] | 3.17 ± 0.26 | – | 2.69 ± 0.24 | 3.42 ± 0.13
KWAGIKTRKFVFNPPKP [CYT1] | 3.04 ± 0.16 | 2.98 ± 0.24 | 3.05 ± 0.17 | 2.95 ± 0.15
DHNGVPFPQYPAGMNET [ITC1] | 1.97 ± 0.12 | 2.59 ± 0.11 | 2.8 ± 0.19 | 2.42 ± 0.064
VIVTDPRLDAQAIKEAS [RPS0B] | 3.03 ± 0.096 | 3.1 ± 0.083 | 2.88 ± 0.072 | 2.9 ± 0.075
IIQLILWSIHPSRQFDH [SRB8] | 1.57 ± 0.047 | 1.47 ± 0.049 | 1.59 ± 0.087 | 1.54 ± 0.05
DGTEYVLSSVREPDFWV [MED6] | 3.49 ± 0.13 | – | – | 2.67 ± 0.12
KKQNLSSHQRVFKLSTN [SWP82] | 1.94 ± 0.052 | 2.08 ± 0.052 | 2.05 ± 0.068 | 2.06 ± 0.043
SLILKESGSTPISISNA [YAR002W/NUP60] | 1.2 ± 0.085 | 1.62 ± 0.1 | 1.45 ± 0.11 | 1.23 ± 0.1
LTNQQPKNLSTPSTSSN [CSE2] | 2.94 ± 0.067 | 2.84 ± 0.068 | 2.67 ± 0.066 | 2.79 ± 0.059
NTQPSASGFGFGGSQPN [YGR119C/NUP57] | 3.18 ± 0.18 | 2.72 ± 0.15 | 2.84 ± 0.12 | 2.77 ± 0.13
WVYKTKGDGMTSAVASI [RPN1] | 2.75 ± 0.27 | 3.14 ± 0.19 | 2.57 ± 0.23 | 2.97 ± 0.14
GSADIGASVISLTKDKS [SIR4] | 3.01 ± 0.086 | 3.12 ± 0.067 | 2.92 ± 0.084 | 3.21 ± 0.052
DDVRDFVIRREVTKGEK [RPS6A] | 3.37 ± 0.14 | 3.4 ± 0.094 | 3.08 ± 0.14 | 3.62 ± 0.18
QVLVTTNQDGLKFVKVR [RPB2] | 1.41 ± 0.075 | 1.78 ± 0.1 | 1.69 ± 0.14 | 1.33 ± 0.11
SQSQQKLLKEKVKLFHG [MED2] | 3.1 ± 0.091 | 3.1 ± 0.093 | 3.07 ± 0.057 | 2.81 ± 0.08
KLLTPQDMEAAKEVYKI [GAL11] | 3.13 ± 0.14 | 3.33 ± 0.14 | 3.43 ± 0.084 | 3.49 ± 0.11
KFGLLLQVSAQERKDFL [ECM29] | 1.6 ± 0.082 | 1.5 ± 0.056 | 1.59 ± 0.2 | 1.57 ± 0.047
RRKKILNEIELDNLKLK [GRR1] | 3.04 ± 0.11 | 3.04 ± 0.086 | 2.76 ± 0.093 | 2.87 ± 0.068
ALPRGARTATVSKKWAA [RPL14A] | 2.25 ± 0.067 | 2.23 ± 0.065 | 1.96 ± 0.1 | 2.14 ± 0.056
LDEDDTNDGIERYSDKY [RPC31] | 3.32 ± 0.14 | 3.4 ± 0.12 | 3.22 ± 0.11 | 3.26 ± 0.074
FLARVIKEKFDEFIKTH [IRR1] | 2.79 ± 0.081 | 2.83 ± 0.08 | 2.8 ± 0.059 | 2.88 ± 0.074
VTVVDTPPVVVVGVVGY [RPL3] | 1.17 ± 0.051 | 1.41 ± 0.061 | 1.26 ± 0.065 | 1.39 ± 0.048
QIQKNVDLLQFPWLNAI [POP3] | 2.29 ± 0.07 | 2.09 ± 0.073 | 3.32 ± 0.11 | 2.35 ± 0.06
